Target: T1, RarA (MgsA) (Escherichia coli, UniProt P0AAZ4 1-447)
T1 sequence: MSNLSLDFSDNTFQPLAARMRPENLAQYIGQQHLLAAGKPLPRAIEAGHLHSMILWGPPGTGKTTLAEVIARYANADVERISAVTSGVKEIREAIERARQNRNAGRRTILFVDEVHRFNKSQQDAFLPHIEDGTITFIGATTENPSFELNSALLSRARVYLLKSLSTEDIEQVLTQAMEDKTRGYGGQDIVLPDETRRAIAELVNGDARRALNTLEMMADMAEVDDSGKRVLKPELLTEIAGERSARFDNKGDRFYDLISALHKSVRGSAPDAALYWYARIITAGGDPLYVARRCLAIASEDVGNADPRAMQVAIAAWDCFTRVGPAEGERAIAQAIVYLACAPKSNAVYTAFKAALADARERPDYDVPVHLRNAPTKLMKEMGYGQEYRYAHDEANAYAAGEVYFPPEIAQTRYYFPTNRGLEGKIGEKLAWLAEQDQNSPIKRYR
Test: fluorescence polarization

## ACACAGAAGGAGACGG (ssDNA) [oANP031_F 16 nt ssDNA]
  Kd: 890 ± 28 nM

Reference: paper PMC5389604
